From the supplement of paper PMC9112550, “Optimization of the antimicrobial peptide Bac7 by deep mutational scanning” (BMC Biology, 2022)

System: Escherichia coli TOP10
Assay: shrunken log2 fold change of peptide-encoding DNA abundance (4.5 h post-induction vs induction); higher = less antimicrobial activity (less host growth inhibition)
Conditions: time post-induction: 4.5 h; library: site-saturation at positions 5, 18, 19, 20
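Further: peptides expressed intracellularly from a pBAD plasmid library in pooled LB shake-flask culture, induced with 0.3% L-arabinose, DNA abundance read by NGS, three biological replicates, DESeq2 with apeglm shrinkage.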

How did the “shrunken log2 fold change” value turn out when RRIRPRPPRLPRPRPRPNAVPRP was run?
The value was 0.0397.

For RRIRPRPPRLPRPRPRPNDFPRP, which “shrunken log2 fold change” value is on record?
Its value is -0.438.

RRIRPRPPRLPRPRPRPNEWPRP was tested. Which “shrunken log2 fold change” value did it give?
The value was -0.203.

RRIRPRPPRLPRPRPRPNFLPRP was tested. Which “shrunken log2 fold change” value did it give?
Its value is 0.0421.

With RRIRPRPPRLPRPRPRPNGLPRP as the sequence, how does the “shrunken log2 fold change” value read?
The value was 0.015.

With RRIRPRPPRLPRPRPRPNGNPRP as the sequence, how does the “shrunken log2 fold change” value read?
The value was -0.144.

With RRIRPRPPRLPRPRPRPNGWPRP as the sequence, how does the “shrunken log2 fold change” value read?
Its value is 0.296.

RRIRPRPPRLPRPRPRPNHWPRP was tested. Which “shrunken log2 fold change” value did it give?
Its value is -0.0328.

For RRIRPRPPRLPRPRPRPNKCPRP, which “shrunken log2 fold change” value is on record?
Its value is -0.26.

RRIRPRPPRLPRPRPRPNNQPRP was tested. Which “shrunken log2 fold change” value did it give?
Its value is -0.353.

With RRIRPRPPRLPRPRPRPNNSPRP as the sequence, how does the “shrunken log2 fold change” value read?
Its value is -0.488.

Which “shrunken log2 fold change” value does the source give for RRIRPRPPRLPRPRPRPNQQPRP here?
The value was 0.0352.

RRIRPRPPRLPRPRPRPNRQPRP was tested. Which “shrunken log2 fold change” value did it give?
The value was -0.0342.

For RRIRPRPPRLPRPRPRPNSNPRP, which “shrunken log2 fold change” value is on record?
The value was -0.762.

With RRIRPRPPRLPRPRPRPNSYPRP as the sequence, how does the “shrunken log2 fold change” value read?
The value was -0.464.

How did the “shrunken log2 fold change” value turn out when RRIRPRPPRLPRPRPRPNTIPRP was run?
Its value is -0.553.

For RRIRPRPPRLPRPRPRPNYDPRP, which “shrunken log2 fold change” value is on record?
Its value is -0.388.

RRIRPRPPRLPRPRPRPPFVPRP was tested. Which “shrunken log2 fold change” value did it give?
The value was 0.139.

Which “shrunken log2 fold change” value does the source give for RRIRPRPPRLPRPRPRPPGFPRP here?
The value was 0.847.

RRIRPRPPRLPRPRPRPPGHPRP was tested. Which “shrunken log2 fold change” value did it give?
The value was 0.371.

Which “shrunken log2 fold change” value does the source give for RRIRPRPPRLPRPRPRPPHRPRP here?
Its value is 0.401.

Which “shrunken log2 fold change” value does the source give for RRIRPRPPRLPRPRPRPPHYPRP here?
The value was 0.457.

Which “shrunken log2 fold change” value does the source give for RRIRPRPPRLPRPRPRPPIFPRP here?
The value was -0.246.

RRIRPRPPRLPRPRPRPPISPRP was tested. Which “shrunken log2 fold change” value did it give?
Its value is -0.0159.

Which “shrunken log2 fold change” value does the source give for RRIRPRPPRLPRPRPRPPKSPRP here?
The value was 0.177.

For RRIRPRPPRLPRPRPRPPMGPRP, which “shrunken log2 fold change” value is on record?
The value was 0.325.

For RRIRPRPPRLPRPRPRPPPIPRP, which “shrunken log2 fold change” value is on record?
The value was 0.374.

For RRIRPRPPRLPRPRPRPPPTPRP, which “shrunken log2 fold change” value is on record?
Its value is 0.761.

For RRIRPRPPRLPRPRPRPPRAPRP, which “shrunken log2 fold change” value is on record?
The value was 0.591.

With RRIRPRPPRLPRPRPRPPTGPRP as the sequence, how does the “shrunken log2 fold change” value read?
Its value is 0.452.

RRIRPRPPRLPRPRPRPPVTPRP was tested. Which “shrunken log2 fold change” value did it give?
The value was 0.147.

RRIRPRPPRLPRPRPRPPYSPRP was tested. Which “shrunken log2 fold change” value did it give?
Its value is -0.181.

With RRIRPRPPRLPRPRPRPQEMPRP as the sequence, how does the “shrunken log2 fold change” value read?
Its value is 0.0716.

Which “shrunken log2 fold change” value does the source give for RRIRPRPPRLPRPRPRPQFGPRP here?
Its value is -0.0476.

How did the “shrunken log2 fold change” value turn out when RRIRPRPPRLPRPRPRPQGKPRP was run?
The value was -0.198.

RRIRPRPPRLPRPRPRPQHIPRP was tested. Which “shrunken log2 fold change” value did it give?
Its value is -0.648.

Which “shrunken log2 fold change” value does the source give for RRIRPRPPRLPRPRPRPQKAPRP here?
Its value is 1.05.

How did the “shrunken log2 fold change” value turn out when RRIRPRPPRLPRPRPRPQLAPRP was run?
The value was 0.417.

With RRIRPRPPRLPRPRPRPQLYPRP as the sequence, how does the “shrunken log2 fold change” value read?
Its value is -0.0926.

Which “shrunken log2 fold change” value does the source give for RRIRPRPPRLPRPRPRPQMHPRP here?
Its value is 0.143.

With RRIRPRPPRLPRPRPRPQMNPRP as the sequence, how does the “shrunken log2 fold change” value read?
The value was -0.267.

How did the “shrunken log2 fold change” value turn out when RRIRPRPPRLPRPRPRPQMTPRP was run?
Its value is 2.25.

With RRIRPRPPRLPRPRPRPQPSPRP as the sequence, how does the “shrunken log2 fold change” value read?
Its value is 0.641.

With RRIRPRPPRLPRPRPRPQQAPRP as the sequence, how does the “shrunken log2 fold change” value read?
The value was 0.106.

Which “shrunken log2 fold change” value does the source give for RRIRPRPPRLPRPRPRPQQNPRP here?
Its value is 0.076.

With RRIRPRPPRLPRPRPRPQRAPRP as the sequence, how does the “shrunken log2 fold change” value read?
Its value is 0.381.

For RRIRPRPPRLPRPRPRPQRKPRP, which “shrunken log2 fold change” value is on record?
The value was 0.113.

Which “shrunken log2 fold change” value does the source give for RRIRPRPPRLPRPRPRPQRNPRP here?
The value was 0.147.

Which “shrunken log2 fold change” value does the source give for RRIRPRPPRLPRPRPRPQRPPRP here?
The value was 0.272.

How did the “shrunken log2 fold change” value turn out when RRIRPRPPRLPRPRPRPQRSPRP was run?
The value was 0.265.

RRIRPRPPRLPRPRPRPQRYPRP was tested. Which “shrunken log2 fold change” value did it give?
Its value is -0.0398.

Which “shrunken log2 fold change” value does the source give for RRIRPRPPRLPRPRPRPQSFPRP here?
Its value is 0.0475.

For RRIRPRPPRLPRPRPRPQTKPRP, which “shrunken log2 fold change” value is on record?
Its value is -0.0309.

How did the “shrunken log2 fold change” value turn out when RRIRPRPPRLPRPRPRPQTPPRP was run?
The value was 0.313.

For RRIRPRPPRLPRPRPRPQVKPRP, which “shrunken log2 fold change” value is on record?
The value was 0.205.

How did the “shrunken log2 fold change” value turn out when RRIRPRPPRLPRPRPRPQWKPRP was run?
The value was 0.0366.

RRIRPRPPRLPRPRPRPQWYPRP was tested. Which “shrunken log2 fold change” value did it give?
Its value is -0.257.

RRIRPRPPRLPRPRPRPQYQPRP was tested. Which “shrunken log2 fold change” value did it give?
The value was -0.263.

How did the “shrunken log2 fold change” value turn out when RRIRPRPPRLPRPRPRPRANPRP was run?
The value was 0.286.

For RRIRPRPPRLPRPRPRPRCNPRP, which “shrunken log2 fold change” value is on record?
Its value is -0.0415.

How did the “shrunken log2 fold change” value turn out when RRIRPRPPRLPRPRPRPRDQPRP was run?
Its value is 0.0809.

Which “shrunken log2 fold change” value does the source give for RRIRPRPPRLPRPRPRPREHPRP here?
Its value is 0.121.

Which “shrunken log2 fold change” value does the source give for RRIRPRPPRLPRPRPRPREMPRP here?
Its value is 0.319.

How did the “shrunken log2 fold change” value turn out when RRIRPRPPRLPRPRPRPREWPRP was run?
Its value is 0.151.

RRIRPRPPRLPRPRPRPRFGPRP was tested. Which “shrunken log2 fold change” value did it give?
Its value is 0.348.

With RRIRPRPPRLPRPRPRPRFHPRP as the sequence, how does the “shrunken log2 fold change” value read?
The value was -0.108.

How did the “shrunken log2 fold change” value turn out when RRIRPRPPRLPRPRPRPRFSPRP was run?
The value was -0.0121.

For RRIRPRPPRLPRPRPRPRFWPRP, which “shrunken log2 fold change” value is on record?
The value was 0.579.

For RRIRPRPPRLPRPRPRPRGAPRP, which “shrunken log2 fold change” value is on record?
The value was 0.495.

For RRIRPRPPRLPRPRPRPRGSPRP, which “shrunken log2 fold change” value is on record?
Its value is 0.285.

With RRIRPRPPRLPRPRPRPRKCPRP as the sequence, how does the “shrunken log2 fold change” value read?
Its value is 0.0115.

With RRIRPRPPRLPRPRPRPRKDPRP as the sequence, how does the “shrunken log2 fold change” value read?
Its value is 0.173.

For RRIRPRPPRLPRPRPRPRKQPRP, which “shrunken log2 fold change” value is on record?
Its value is 0.0406.

With RRIRPRPPRLPRPRPRPRKVPRP as the sequence, how does the “shrunken log2 fold change” value read?
The value was 0.00959.

RRIRPRPPRLPRPRPRPRMTPRP was tested. Which “shrunken log2 fold change” value did it give?
The value was 0.288.
